Data as given in the DeepSol protein solubility set.

Assay: soluble on expression in E. coli; label from the status in PepcDB or PDB records

Sequence	soluble on expression in E. coli
MIETKRQQERVILLGVELQTTEHFDMSMTELANLAKTAGVKVMASFSQKRERYDSKTFIGSGKLDEIKAIVEADEIDAVIVNNRLTARQNANLEAVLEVKVIDRMQLILDIFAMRARSHEGKLQVHLAQLKYMLPRLVGQGIMLSRQAGGIGSRGPGESQLELNRRSIRHQIADIERQLTQVEKNRQTIRDRRVGSDTFKIGLIGYTNAGKSTIMNLLTDDSHYEANELFATLDATTKQLYLENQFQATLTDTVGFIQDLPTELVAAFKSTLEESKYVDLLLHVIDASDPNHSEQEKVVLNLLKELDMLNIPRLAIYNKVDIAEQFTATAFPNIRISARSKDSKILLRRLIIDQIRDQFVPFRIKVHQDKAYKLYDLNRVALLDHYTFDQEIEDISGYISPKQQWRLDDFYELEHHHHHH	soluble
MGSDKIHHHHHHMHQDTVRGKAFAMPLISPAYPAGPYRFRNREYLIITYRTDPQKLRDLVPEPLQVCEPMVKFEFIRMPDSTGFGDYTEGGQVIPVSFYGRRGSYTHCMFLDDHPPIAGGRELWGFPKKLASPTLRTETDTLVGTLDYGPVRVATGTMGYKHRAADLASVRASLAEPNFLLKIIPHVDGTPRICELVEYHLEDVHLRGAWTGPAALNLWSHALAPVAELPVLEVVSAVHLVADLTLALGKVVHDYLAKA	not soluble
GLNSVIKPTKYKPVPDEEPNSTDVEETLKRIQNNDPDLEEVNLNNIMNIPVPTLKACAEALKTNTYVKKFSIVGTRSNDPVAFALAEMLKVNNTLKSLNVESNFISGSGILALVEALQSNTSLIELRIDNQSQPLGNNVEMEIANMLEKNTTLLKFGYHFTQQGPRLRASNAMMNNNDLVRKRRL	soluble
MQVHVIRRENRALYAGLLEKYFRIRHQIYVVERGWKELDRPDGREIDQFDTEDAVYLLGVDNDDIVAGMRMVPTTSPTLLSDVFPQLALAGPVRRPDAYELSRIFVVPRKRGEHGGPRAEAVIQAAAMEYGLSIGLSAFTIVLETWWLPRLVDQGWKAKPLGLPQDINGFSTTAVIVDVDDDAWVGICNRRSVPGPTLEWRGLEAIRRHSLPEFQVIS	not soluble
SGGRPIQFFRRLAIWKYMKDYFPVSLVKTAELDPSRNYIAGFHPHGVLAAGAFLNLCTESTGFTSLFPGIRSYLMMLTVWFRAPFFRDYIMSGGLVSSEKVSADHILSRKGGGNLLAIIVGGAQEALDARPGAYRLLLKNRKGFIRLALMHGAALVPIFSFGENNLFNQVENTPGTWLRWIQNRLQKIMGISLPLFHGRGVFQYSFGLMPFRQPITTIVGKPIEVQMTPQPSREEVDRLHQRYIKELCKLFEEHKLKFNVPEDQHLEFC	soluble
MGSDKIHHHHHHMRVKIYTLADDYAGYNSPFWAQHGVSFLVEVEGKKILFDTASYAEPILFNMKLLNLNPRDIDMIVLSHNHFDHTGGLLGILREINRKVPIFAHPEIFKVSFALEPEFMYAGTPRLKEEAEKLGGIWILTRDPITLMPGVFTLGEIKEEEKVEFEKGSTGLFKIEDGRVIEDKVEDEIGLAINTRKGLVVLAGCAHPGIVSMVKKAIKLSGNDKVYAVLGGFHLINAEDSRIEKTVEAFKELEVKKVYAGHCTGLKAESRFAQELGDRFEKLHSGKIIEIS	not soluble
SSEADQALVGPKADEPSPPAEEKDEGGGKEAAADAAPGPSASFRLMVTRREPAVKLQYAVSGLEPLSWSEDHRVSVSTARSVAVLELICDVHNPGQDLVIHRTSVPAPLNSCLLKVGSKTEVAECKEKFASSKDPTISQTFMLDRMFNPEGKALPPMRGFKYTSWSPMGCDANGRCLLAALTMDNRLTVQVNLNRLQWVQLVDLTEIYGDRLYETSYRLSKNEAPEGNLGDFAEFQRRHSMQTPVRMEWSSICTTQQVKHNNECRDVSS	soluble
MGAVSAFSWASSGRLHALEVFVMKIPKTYDEIMEHFGGLIDEVTAELLESYAKGETVRVSEALAKSGRVAVEGVVLRVFPVRHFSKNGRSGKVGSVVIQDDCTVRVNFWNEAAEIIEAGDIVEGARIKVRGYARGEEIHVNSLSEVEVFVDFVNISELDEKVGERVNVKGFVSGLGEPEKANEIYISDETGRVKVLLENESLYYAVDIGSYVEIYNALAGEDGIYVDRNSRFSVGELEHHHHHH	not soluble
GAERTIQLPKPDMNRAGLLMKALSERHSTREYASKALSNTDLSDLLWAANGINRSSEGKRTAPSAMNRQDIDIYVVLPQGTYLYDAKGHKLNLISEGDHRSAVAGGQAFVNNAPVSLVLVSDLSKLGDAKSNHVQLMGAMDAGIVSQNISLFCSAARLATVPRASMDLVRLKAALKLKDTQMPMMNHPVGYFK	soluble
MSLKPVMIIQFSASEGPGHFGDFLAGEHIPFQVLRMDRSDPLPAEIRDCSGLAMMGGPMSANDDLPWMPTLLALIRDAVAQRVPVIGHCLGGQLLAKAMGGEVTDSPHAEIGWVRAWPQHVPQALEWLGTWDELELFEWHYQTFSIPPGAVHILRSEHCANQAYVLDDLHIGFQCHIEMQAHMVREWCSISPEELKGGAEADPAQPMVQSAVEILRDLDVRIATLNRWAEHVYARWIKGLQREGHHHHHH	soluble
MSLGVSFNIMCPNSSIYSDEKSRVLVDKTKSGKVRPWREKKIANVDYFELLHILEFKKAERVKDCAEILEYKQNRETGERKLYRVWFCKSRLCPMCNWRRAMKHGIQSQKVVAEVIKQKPTVRWLFLTLTVKNVYDGEELNKSLSDMAQGFRRMMQYKKINKNLVGFMRATEVTINNKDNSYNQHMHVLVCVEPTYFKNTENYVNQKQWIQFWKKAMKLDYDPNVKVQMIRPKNKYKSDIQSAIDETAKYPVKDTDFMTDDEEKNLKRLSDLEEGLHRKRLISYGGLLKEIHKKLNLDDTEEGDLIHTDDDEKADEDGFSIIAMWNWERKNYFIKEEGHHHHHH	soluble
MGSDKIHHHHHHMEQATRTIYSEYAAYPETQGIIAVEKRQPRDSLTDQFDVLLLVITRDPSVEWTVKHYRLNTLRVSLHLVHEQVLSRWLILNANRRAVHWVSEGTIIFERNDYLTDLKKQLRNFPETERCLQMSLSFAKLLRRFQDGRNLFSRGNYYDAYTHVHHALHHLARLSVLEKGAHPEVVVWEQARLDDPDVYKLYEQLLLSEETLEQRIHLALIGLEHLLQSKVLSGGKYLFEVMRERDRPWTMHELMEESRLTELKVDLGSLVDFFIRKGLIRISYQRTKGLGVELVTYEPVV	not soluble
MLQLTHVTLKTRQVILQDVDFTFKKGRVYGLLAINGSGKTTLFRAISNLIPISSGNIAAPPSLFYYESIEWLDGNLSGMDYLRLIKNIWKSGLNLRDEIAYWEMSDYISLPIRKYSLGMKQRLVIAMYFLSQAKCWLMDEITNGLDEYYRQKFFDRLAQIDRQEQLVLLSSHYKEELVDVCDRVVTIHQGQIEEV	not soluble
MEIQHLDGHIVKVQRDKVTWPGARLRKKDEGMPSLEDNNKKGMLVVTFDVEFPKTELSDEQKAQIIEILQQNTVKPKAYNGL	not soluble
MGSDKIHHHHHHMTSADPPTLPETSVDVPPTSAEGLLKLITNEYDGLPRQLKRIASYMSQQSDRIMVDRISDIARECEVHPSAIVRFSQRFGFSGFSEMQTLFREAYTHKTTPVQNYQQRIRSMIVNKSQKASAGDLARECVNATLSGLERLSADLDDEEFEKAVDLVVNADNIYVVGVRRSFAVADYLVYNLQHTNKRIHLISGLGGSYREQMRSVRANDLVIAISFTPYGKETQHCLRIAQHHQAKTLIITDSNLSPLAKRANSVLLVNEGSSFAFRSLSATLCLCQALFIAVAYRLELKVDEIHEQVGFDD	not soluble
MSLKEGAWGIIGVPFDSTTSYHPGSRFGPIVVREASYGFEKYNTIFNTQLDNIFYDFGDVNVVFGNCKKTCDIIEDTVNELSDLKIKPLTIGGEHSLTIGVLNSLTKKYDDLTVVHLDAHRDLADTFIGELYSHASVMKRVHEMGVKELVQIGIRSASKEEEDFVKNQSNITTFKNNDVFHHLDNIEYYLSIIDTPIYLSIDMDVFDPSIAPTVGNPTPNGIAYGHIEAMLQTLSLKNVVGMDVVETAGDRLGDITAVSASKIIYDFLSLLEGHHHHHH	not soluble
MGHHHHHHSHMLFEEAFVHLKPQVCLPLWISWAEWSEGAKSQEDTEAVFKKALLAVIGADSVTLKNKYLDWAYRSGGYKKARAVFKSLQESRPFSVDFFRKMIQFEKEQESCNMANIREYYERALREFGSADSDLWMDYMKEELNHPLGRPENCGQIYWRAMKMLQGESAEAFVAKHAMHQTGHL	not soluble
MGSDKIHHHHHHQEGRSDPLEGFNRTMFNFNYDVLDPYVVRPAAVAWRDYVPTPARNGLGNFFNNLEEPATMVNYFVEGKPYKAMIHFNRFFLNTLLGMGGLIDVASMANPKLAKEESRRFGSTLGNYGVGYGPYVVLPGYGSVTPREDGGGVADTLYPMLSYLTFWMSAGKWAIEGLETRAQLLDSDGLLRNSSDPYLMIREAYFQRHDFLASDGQIAPQQNPNAAAIEDSLDEIDSAK	not soluble
MKSRTRWLTSEELVTLFEAMRQAPGFSVENGLSIKLLLLLAVRKGELIGARWSEFDLDKAVWYLPAERTKTESAIDIPLPPIAVEWLRELQRLAGVSKWVLPARKMQDRMIPHIAESTLSVALAKIKHGLEPFTIHDLRRTARTHFEALGVAPHIAERCLNHKIKGIEGIYNRHDYFEERKAALEAWAGLLLQIERGEADKVVPIRRAVATKQLEHHHHHH	not soluble
HQITRTVPAKRGTIYDRNGVPIAEDATSYNVYAVIDKKYKSATGKILYVEDAQFNKVAEVFHKYLDMEESYVREQLSQPNLKQVSFGSKGNGITYANMMAIKKELETAEVKGIDFTTSPNRSYPNGQFASSFIGLAQLHENEDGSKSLLGTSGMESSLNSILAGTDGIITYEKDRVGNIVPGTELVSQQTVDGKDVYTTLSSPLQSFMETQMDAFLEKVKGKYMTATLVSAKTGEILATTQRPTFNADTKEGITEDFVWRDILYQSNYEPGSAMKVMTLASSIDNNTFPSGEYFNSSELKIADATTRDWDVNEGLTTGGMMTFLQGFAHSSNVGMSLLEQKMGDATWLDYLKRFKFGVPTRFGLTDEYAGQLPADNIVSIAQSSFGQGISVTQTQMLRAFTAIANDGVMLEPKFISAIYDTNNQSVRKSQKEIVGNPVSKEAASTTRNHMILVGTDPLYGTMYNHYTGKPIITVPGQNVAVKSGTAQIADEKNGGYLVGSTNYIFSAVTMNPAENPDFILYVTVQQPEHYSGIQLGEFATPILERASAMKESLNLQSPAKNLDKVTTESSYAMPSIKDISPGELAEALRRNIVQPIVVGTGTKIKETSVEEGTNLAPNQQVLLLSDKVEEIPDMYGWKKETAETFAKWLDIELEFEGSGSVVQKQDVRTNTAIKNIKKIKLTLGD	soluble
MFFNLRKNKKRLGWFNNGEVEAVAKDLGVAPSEVREMEARLAAQDSTFEAPAEDDDRDMAFTAPVYYLEDKQSDVAYSLEEDNWEDYTNNRLANAIATLDERSQHIVQSRWLADEKATLQELADTYQVSAERIRQLEKNAMKKLKDAVGDVL	not soluble
MAIDVLDVISLSLFKQQIEFEEDDRDELITLYAQAAFDYCMRWCDEPAWKVAADIPAAVKGAVLLVFADMFEHRTAQSEVQLYENAAAERMMFIHRNWRGKAESEEGS	soluble
MVKVIASSVRKGNVLDVDGKLYVVLTAQNFHPGKGTPVTQVDMRRIVDGTKVSERWRTTEQVERAFVEDLNFQFLYEDGEGFHFMNPENYDQVVVDVETMGDQKAYLQEGMTCVLSIHEGNPLAVELPRHVTLEIVETEPVVKGQTASSSYKPAILSNGIRTMVPPHIDAGIRVVIATEDNSYVERAKN	not soluble
